Tested on: Nc1ncnc2c1ncn2[C@@H]1O[C@H](COP(=O)(O)NCCc2c[nH]c3ccccc23)[C@@H](O)[C@H]1O
Experiment: purified protein
Details: 20 mM HEPES, 1 mM MgCl2, pH 7.2, 25 °C

Row | Substance | Km [µM] | kcat [s⁻¹] | kcat/Km [M⁻¹ s⁻¹]
1 | human histidine triad nucleotide binding protein 1 (hHint1) (Homo sapiens; H114A) | 0.27 ± 0.05 |  | 
2 | human histidine triad nucleotide binding protein 1 (hHint1) (Homo sapiens; H51A) | 1.8 ± 0.2 | 0.53 ± 0.02 | 300000 ± 40000
3 | human histidine triad nucleotide binding protein 1 (hHint1) (Homo sapiens) | 0.13 ± 0.02 | 2.1 ± 0.1 | 1.5e+07 ± 3e+06
